For one assay, the system named is PC3 model. Put plainly: Tumor volume in mice, PC3 model. In kind it is in vivo. The method, then: Tumor volume was measured in mice being treated with Abraxane alone (15 mg/kg administered daily for five days), Abraxane and Sutent (the Sutent administered at 30 mg/kg daily for 8 weeks), Abraxane and exogenous SPARC (the SPARC at […] administered twice a week for eight weeks), and finally, Abraxane, Sutent and SPARC together.
FIG. 1 depicts a graph plotting tumor volume (mm^3) against time (days) for these test conditions.

The subject of assay [1] is HUVEC. Put plainly: HUVEC sprout formation bead assay. In kind it is cell-based. Conditions: addition of rhSPARC. The procedure:
(§1) Recombinant human SPARC and genetically engineered variants were expressed and purified using HEK 293 cells maintained in hollow fiber bio-reactors. The angiogenic activity of rhSPARC and its variants was evaluated using a HUVEC tube formation assay and a HUVEC sprout formation bead assay.
(§2) In the HUVEC tube formation assay, rhSPARC was pro-angiogenic at 10 μg/mL and anti-angiogenic at 100 μg/mL. […] Additional rhSPARC variants with deletions and single/double amino acid substitutions tested in these assays included: Q3 deletion (BIO2), an inversion of the putative angiogenic domain (BIO5), a double K>Q substitution in the proposed angiogenic domain (BIO11), the genetic ablation of the putative catephsin K recognition sites (BIO8), and a proteolytic degradation product of rhSPARC. End terminal amino acid analysis indicated the angiogenic activity is localized to SEQ ID NO: 1.

In assay [2] the test system is HUVEC. The experiment in a line: HUVEC (3-D) tube formation assay. It is filed as cell-based. The procedure: as §1, §2
FIG. 4 depicts the results of a HUVEC 3-D tube formation assay conducted with wild type SPARC and SPARC-D. The angiogenic behavior of wild type SPARC, as described in the previous example, can be seen in the graph; the angiogenic behavior increases as the concentration approaches 10 ug/ml and drops off as it approaches 100 ug/ml.

As to `CCN(CC)CCNC(=O)c1c(C)[nH]c(/C=C2\C(=O)Nc3ccc(F)cc32)c1C` [Sutent®, reference compound], the “efficacy of the SPARC/Abraxane combination (tumor volume)” value in the assay with PC3 model (Sutent 30 mg/kg daily for 8 weeks added to SPARC and Abraxane) is given as “markedly improved”. Also, in the assay with PC3 model (Sutent 30 mg/kg daily for 8 weeks with Abraxane, versus Abraxane alone), the “decrease in tumor volume” value was “far greater decrease in tumor volume”.

B1: SPARC: Secreted Protein, Acidic, Rich in Cysteines; recombinant human SPARC expressed and purified using HEK 293 cells (protein, listed as Homo sapiens)
chain: APQQEALPDETEVVEETVAEVTEVSVGANPVQVEVGEFDDGAEETEEEVVAENPCQNHHCKHGKVCELDENNTPMCVCQDPTSCPAPIGEFEKVCSNDNKTFDSSCHFFATKCTLEGTKKGHKLHLDYIGPCKYIPPCLDSELTEFPLRMRDWLKNVLVTLYERDEDNNLLTEKQKLRVKKIHENEKRLEAGDHPVELLARDFEKNYNMYIFPVHWQFGQLDQHPIDGYLSH
Turning to B1, the tumor volume entry in the assay with PC3 model (exogenous SPARC 0.2 mg/ms twice a week for eight weeks with Abraxane, versus Abraxane alone) is “tumor volume is slightly greater”. In the assay on PC3 model (exogenous SPARC along with Abraxane and Sutent), the “effect on synergy of Abraxane and Sutent (tumor volume)” value is recorded as “negates some of the synergistic affect”. Moreover, in the assay on HUVEC [1], the “blood vessel maturity in sprout formation” value is “more mature blood vessels well supported by pericytes”. Also, the angiogenic activity entry with HUVEC [2] (10 μg/mL, listed as rhSPARC) is reported as “pro-angiogenic”; with HUVEC [2] (10 μg/mL, listed as wild type SPARC), “increases”; with HUVEC [2] (100 μg/mL, listed as rhSPARC), “anti-angiogenic”; with HUVEC [2] (100 μg/mL, listed as wild type SPARC), “drops off”.

Source of the values: US20140094416A1, “SPARC ANGIOGENIC DOMAIN AND METHODS OF USE” (Abraxis BioScience, LLC, priority 2009, published 2014).
